Results: patent US11015206B2, “Compositions and methods comprising sequences having hydroxyphenylpyruvate dioxygenase (HPPD) activity” (PIONEER HI-BRED INTERNATIONAL, INC., priority 2014, dated 2021)

What was measured:
Assay type in all cases: biochemical, Z. mays
[1] = system: 4-hydroxyphenylpyruvate dioxygenase (HPPD); test: Insensitivity parameter (ON × OFF) and trait fitness (ON × OFF × kcat/KM or × kcat); settings: for ON × OFF × kcat, Value / ON × OFF × kcat, Fold vs wt / ON × OFF, fold vs wt / ON × OFF (parameters with tembotrione): Table 5, tembotrione; for ON × OFF × kcat, Fold vs wt / ON × OFF, fold vs wt: fold vs maize wild type HPPD; for ON × OFF (parameters with tembotrione): insensitivity parameter
Summary of the method: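 Calculated, not measured directly: ON rate ratio × OFF rate ratio gives an insensitivity parameter serving as a KD surrogate.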

[2] = system: 4-hydroxyphenylpyruvate dioxygenase (HPPD); test: ON rate ratio: HPPD reaction rate with vs without inhibitor in the 70 to 90 second interval; settings: Table 5; tembotrione
Summary of the method: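 Time courses of HPPD reactions, 60 or 120 nM enzyme with 100 μM HPP substrate, run with and without 4 μM inhibitor (e.g. mesotrione, tembotrione). Value is the rate with inhibitor over rate without, taken over 70–90 s; higher ratio reflects slower kON.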

[3] = system: 4-hydroxyphenylpyruvate dioxygenase (HPPD); test: Estimate of kcat from initial rate at saturating hydroxyphenylpyruvate without inhibitor (ON rate ratio assay); settings: Table 5; single substitutions in Round 7 variant 9070 (SEQ ID NO:2); estimate from initial rate at saturating hydroxyphenylpyruvate without inhibitor
Summary of the method: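 Reactions used 60 or 120 nM HPPD and saturating 100 μM hydroxyphenylpyruvate without inhibitor. kcat was estimated from the initial rate at the known enzyme concentration.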

[4] = system: 4-hydroxyphenylpyruvate dioxygenase (HPPD); test: OFF rate ratio: release of inhibitor from pre-formed enzyme-inhibitor complex; settings: Table 5; tembotrione
Summary of the method: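 HPPD (7.2 μM) pre-incubated 1 h at RT with inhibitor (8 μM), then diluted into 25 mM Hepes pH 7, 2 mM ascorbate, 10 μM FeSO4, 100 μM HPP, 50 nM HGD; A320 followed 12 min. Ratio = steady-state rate with inhibitor over initial rate of inhibitor-free enzyme.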

[5] = system: 4-hydroxyphenylpyruvate dioxygenase (HPPD); test: HPPD activity coupled assay with HGD; substrate saturation kinetic parameters (kcat, KM); settings: Table 6; for kcat: single substitutions in SEQ ID NO:2
Summary of the method: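 Coupled continuous assay: His-tagged HPPD (5 to 240 nM, E. coli-expressed, Ni-NTA-purified) with 50 nM P. aeruginosa HGD in 25 mM Hepes pH 7, 2 mM ascorbate, 10 μM FeSO4; maleylacetoacetate followed at 320 nm. KM and Vmax from Lineweaver-Burke fits over 3.33–100 μM HPP.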

[6] = DKN (diketonitrile form of isoxaflutole)

| Molecule | Insensitivity parameter, ON × OFF [1, 6] | Insensitivity parameter, ON × OFF ([1]; Mesotrione, Table 6) | Insensitivity parameter, ON × OFF ([1]; Sulcotrione) | ON × OFF, fold vs wt [1] | ON × OFF (parameters with tembotrione) [1] | Insensitivity parameter, ON × OFF ([1]; Tembotrione) | Insensitivity parameter, ON × OFF ([1]; Topramezon) | ON ratio (parameters with tembotrione) [2] | OFF ratio (parameters with tembotrione) [4] | ON × OFF × kcat, Value [1] | ON × OFF × kcat, Fold vs wt [1] | kcat [3] [s⁻¹] | Km [5] [µM] | kcat [5] [s⁻¹] |
| --- | --- | --- | --- | --- | --- | --- | --- | --- | --- | --- | --- | --- | --- | --- |
| 191L: single substitution 191L in SEQ ID NO:2 (protein, Zea mays variant form created by artificial means.) MGPTPTATAAGAAVAAASAAEQAAFRLVGHRNFVRFNPRSDRFQTLAFHHVELWCADAASAAGRFSFALGVPLAARSDLSTGNSAHASLLLRSGSLSLLFTAPYAHGADAATAALPSFSAAAARRFAADHGLAVRAVALRVADAEDAFRASVAAGARPAFGPVDLGRGFRLAEVELYGDVVLRYVSYPDGLAGEPFLPGFEGVASPGAADYGLSRFDHIVGNVPELAPAAAYMAGFTGFHEFAEFTTEDVGTTESGLNSMALANNSENVLLPLNEPVHGTKRRSQIQTFLDHHGGPGVQHIALASDDVLRTLREMRARSAMGGFEFLPPPLSDYYDGVRRCAGDVLTEAQINECQELGVMVDRDDQGVLLQIFTKPVGDRPTFFLEIIQRIGCMEKDEKGQEYQKGGCGGFGKGNFGQLFKSIEDYEKSLEAKQAAAAATAQGS | 0.38 | 0.45 | 0.56 | 30.5 | 0.16 | 0.33 | 0.37 | 0.77 | 0.20 | 3.35 | 3.13 | 0.358 | 2.74 | 0.548 |
| 214T: single substitution 214T in SEQ ID NO:2 (protein, Zea mays variant form created by artificial means.) MGPTPTATAAGAAVAAASAAEQAAFRLVGHRNFVRFNPRSDRFQTLAFHHVELWCADAASAAGRFSFALGVPLAARSDLSTGNSAHASLLLRSGSLSLLFTAPYAHGADAATAALPSFSAAAARRFAADHGLAVRAVALRVADAEDAFRASVAAGARPAFGPVDLGRGFRLAEVELYGDVVLRYVSYPDGAAGEPFLPGFEGVASPGAADYGLTRFDHIVGNVPELAPAAAYMAGFTGFHEFAEFTTEDVGTTESGLNSMALANNSENVLLPLNEPVHGTKRRSQIQTFLDHHGGPGVQHIALASDDVLRTLREMRARSAMGGFEFLPPPLSDYYDGVRRCAGDVLTEAQINECQELGVMVDRDDQGVLLQIFTKPVGDRPTFFLEIIQRIGCMEKDEKGQEYQKGGCGGFGKGNFGQLFKSIEDYEKSLEAKQAAAAATAQGS | 0.21 | 0.41 | 0.50 | 20.2 | 0.10 | 0.17 | 0.23 | 0.74 | 0.14 | 4.03 | 3.76 | 0.653 | 2.94 | 1.4 |
| 205T: single substitution 205T in SEQ ID NO:2 (protein, Zea mays variant form created by artificial means.) MGPTPTATAAGAAVAAASAAEQAAFRLVGHRNFVRFNPRSDRFQTLAFHHVELWCADAASAAGRFSFALGVPLAARSDLSTGNSAHASLLLRSGSLSLLFTAPYAHGADAATAALPSFSAAAARRFAADHGLAVRAVALRVADAEDAFRASVAAGARPAFGPVDLGRGFRLAEVELYGDVVLRYVSYPDGAAGEPFLPGFEGVATPGAADYGLSRFDHIVGNVPELAPAAAYMAGFTGFHEFAEFTTEDVGTTESGLNSMALANNSENVLLPLNEPVHGTKRRSQIQTFLDHHGGPGVQHIALASDDVLRTLREMRARSAMGGFEFLPPPLSDYYDGVRRCAGDVLTEAQINECQELGVMVDRDDQGVLLQIFTKPVGDRPTFFLEIIQRIGCMEKDEKGQEYQKGGCGGFGKGNFGQLFKSIEDYEKSLEAKQAAAAATAQGS | 0.30 | 0.47 | 0.60 | 29.0 | 0.15 | 0.22 | 0.29 | 0.74 | 0.20 | 3.72 | 3.48 | 0.418 | 2.72 | 0.573 |

The next lines start with results.

| Insensitivity parameter, ON × OFF [1, 6] | Insensitivity parameter, ON × OFF ([1]; Mesotrione, Table 6) | Insensitivity parameter, ON × OFF ([1]; Sulcotrione) | ON × OFF, fold vs wt [1] | ON × OFF (parameters with tembotrione) [1] | Insensitivity parameter, ON × OFF ([1]; Tembotrione) | Insensitivity parameter, ON × OFF ([1]; Topramezon) | ON ratio (parameters with tembotrione) [2] | OFF ratio (parameters with tembotrione) [4] | Molecule | ON × OFF × kcat, Value [1] | ON × OFF × kcat, Fold vs wt [1] | kcat [3] [s⁻¹] | Km [5] [µM] | kcat [5] [s⁻¹] |
| --- | --- | --- | --- | --- | --- | --- | --- | --- | --- | --- | --- | --- | --- | --- |
| 0.26 | 0.52 | 0.63 | 23.2 | 0.12 | 0.22 | 0.28 | 0.79 | 0.15 | 227G: single substitution 227G in SEQ ID NO:2 (protein, Zea mays variant form created by artificial means.) MGPTPTATAAGAAVAAASAAEQAAFRLVGHRNFVRFNPRSDRFQTLAFHHVELWCADAASAAGRFSFALGVPLAARSDLSTGNSAHASLLLRSGSLSLLFTAPYAHGADAATAALPSFSAAAARRFAADHGLAVRAVALRVADAEDAFRASVAAGARPAFGPVDLGRGFRLAEVELYGDVVLRYVSYPDGAAGEPFLPGFEGVASPGAADYGLSRFDHIVGNVPELGPAAAYMAGFTGFHEFAEFTTEDVGTTESGLNSMALANNSENVLLPLNEPVHGTKRRSQIQTFLDHHGGPGVQHIALASDDVLRTLREMRARSAMGGFEFLPPPLSDYYDGVRRCAGDVLTEAQINECQELGVMVDRDDQGVLLQIFTKPVGDRPTFFLEIIQRIGCMEKDEKGQEYQKGGCGGFGKGNFGQLFKSIEDYEKSLEAKQAAAAATAQGS | 4.09 | 3.83 | 0.577 | 2.61 | 0.755 |
| 0.26 | 0.53 | 0.59 | 24.5 | 0.13 | 0.19 | 0.27 | 0.80 | 0.16 | 431F: single substitution 431F in SEQ ID NO:2 (protein, Zea mays variant form created by artificial means.) MGPTPTATAAGAAVAAASAAEQAAFRLVGHRNFVRFNPRSDRFQTLAFHHVELWCADAASAAGRFSFALGVPLAARSDLSTGNSAHASLLLRSGSLSLLFTAPYAHGADAATAALPSFSAAAARRFAADHGLAVRAVALRVADAEDAFRASVAAGARPAFGPVDLGRGFRLAEVELYGDVVLRYVSYPDGAAGEPFLPGFEGVASPGAADYGLSRFDHIVGNVPELAPAAAYMAGFTGFHEFAEFTTEDVGTTESGLNSMALANNSENVLLPLNEPVHGTKRRSQIQTFLDHHGGPGVQHIALASDDVLRTLREMRARSAMGGFEFLPPPLSDYYDGVRRCAGDVLTEAQINECQELGVMVDRDDQGVLLQIFTKPVGDRPTFFLEIIQRIGCMEKDEKGQEYQKGGCGGFGKGNFGQLFKSIEDYEKSLFAKQAAAAATAQGS | 3.61 | 3.37 | 0.482 | 1.77 | 0.513 |
